Test results from patent publication US9199028B2, “Use of entrained neutrophils to treat metastatic and micrometastatic disease in at risk patients” (MEMORIAL SLOAN-KETTERING CANCER CENTER, priority 2010, dated 2015).

Experiments:
MDA-MB-231 cells = assay: In vitro killing assay: human neutrophils co-cultured with luciferase labelled MDA-MB-231 cells; assay type: cell-based; conditions: naïve human neutrophils:tumor cells 1:1, chemokine 100 ng/ml (rhG-CSF 20 ng/ml), overnight
Description: Luciferase is under a constitutive promoter so cell death results in a decrease in luciferase activity because there is no transcription/translation of the lucierferase gene. The assay itself requires lysing of the cell to release the luciferase to mix with the luciferin and measure the luminescence. But it isn't that they dying cell releases luciferase. More signal means more luciferase which means more live cells. […]. […] Nave human neutrophils were co-cultured with MDA-MB-231 cells. […] Cells were seeded at a ratio of human neutrophils:human tumor cells=1:1.
Antibodies used for immunohistochemistry—MMP9, F4/80 and CCR2 (all from AbCam), Myeloperoxidase (Dako), Ly-6G and Cd11b (both from BD), and Cleaved Caspase 3 (Cell signalling). Antibodies used for western blotting—Actin (Sigma), CCL2 (AbCam) and CCL5 (R&D) p-SMAD2 (cell signalling). Antibodies used for FACS analysis FITC-Ly-6G, FITC-Cd11b, FITC-F4/80, FITC-Cd34 and FITC-c-Kit (all from BD) and VEGFR1-AP (R&D). Neutrophil Depletion Neutrophil depletion was achieved using daily IP injections of 12.5 μg Rat anti-Gr-1 antibody (BD) or Rat anti-Ly-6G antibody (BD) starting on day 3 post tumour engraftment. Starting on day 14, neutrophil depleting antibodies were administered twice daily. Control mice were injected with […] Rat isotype control (BD). Neutrophil depletion was monitored by manual blood differentials and FACS analysis. Flow Cytometry Peripheral blood was collected into EDTA-coated tubes, washed and resuspended in FACS buffer solution (PBS, 2% heat-inactivated FCS, 5 mM EDTA, and 0.02% sodium azide). The samples were blocked with […] and then incubated with fluorophore-conjugated antibodies. Erythrocytes were then lysed with FACS lysing solution (BD Biosciences) and the cell suspensions were analyzed on a FACSCalibur (BD Biosciences). Colony Formation Assay Female nude mice were orthotopically injected with 5×10^6 puromicin resistant 4T1 cells. On days 7 and 14 post tumour engraftment the mice were sacrificed and perfused with PBS. The lungs and livers were removed, washed with PBS and dissociated with Collagenase A (Roche). The single cell suspension was then plated onto puromicin containing media and selected for 14 day. Colonies were stained with Methylene-Blue and counted manually. Mouse Neutrophil Purification Whole blood was collected by cardiac puncture using heparinized (Sigma) syringe. The blood was diluted with 5 volumes of PBS containing 0.5% BSA and subjected to a discontinuous Histopaque (Sigma) gradient (1.077 and 1.119). Neutrophils were collected from the 1.077-1.119 interface, lymphocytes and monocytes collected from the plasma-1.077 interface. RBCs were eliminated by hypotonic lysis. The cells were washed twice with PBS-BSA and re-suspended in OptiMEM (Invitrogen) 0.5% FBS in a final concentration of 2×10^6 cells/ml. Neutrophil purity and viability were determined visually and were consistently >98%. Human Neutrophil Purification As part of a Memorial Sloan-Kettering Cancer Center institutionally approved protocol, blood samples (˜10 cc) were collected from healthy volunteers or from patients who were already having blood drawn for pre-surgical testing. Patients were consented accordingly as part of the approved protocol. […] Patients had either mastectomies or lumpectomies planned and had blood drawn prior to definitive surgical removal of their primary tumor or chemotherapy. Blood samples were transferred to the lab for analysis no more than 1 hour post-blood draw. Heparinzed blood (20 U/ml final) was mixed with an equal volume of Dextran 500 (3% in saline) and incubated 30 minutes at room temperature. The leukocyte-rich supernatant was layered on top of histopaque 1077 (Sigma) and centrifuged. Neutrophils, collected in the pellet fraction, were resuspended in 10 ml 0.2% NaCl for 30 seconds to remove contaminating erythrocytes. Isotonicity was restored by the addition of 10 ml 1.6% NaCl. […]

4T1 cells = assay: In vivo stimulation of neutrophils with chemokines, purified neutrophils co-cultured with 4T1 cells; assay type: cell-based, mouse; conditions: healthy mice treated in vivo with G-CSF alone or G-CSF plus chemokine
Experimental: A. To test which chemokines may participate in the stimulation of neutrophils, neutrophils purified from healthy mice were co-culture with luciferase labeled 4T1 cells in the presence (20 ng/ml of chemokine) or absence of certain chemokines for an overnight incubation. […] B. To test which chemokines are sufficient for in vivo stimulation of neutrophils healthy mice were treated with G-CSF (to boost neutrophil numbers) and either CCL2, CCL5 or CXCL1. Control mice were treated with G-CSF alone. Neutrophils were purified from these mice and co-cultured with Luciferase-labeled 4T1 cells. […] Conclusion—CCL2 and to a lesser degree CCL5 can stimulate tumor cell killing both in vitro and in vivo.

B1: rhG-CSF: recombinant methionyl human granulocyte colony-stimulating factor (Neupogen, Amgen) (protein, chains of the INN, looked up)
chain: MTPLGPASSLPQSFLLKCLEQVRKIQGDGAALQEKLCATYKLCHPEELVLLGHSLGIPWAPLSSCPSQALQLAGCLSQLHSGLFLYQGLLQALEGISPELGPTLDTLQLDVADFATTIWQQMEELGMAPALQPTQGAMPAFASAFQRRAGGVLVASHLQSFLEVSYRVLRHLAQP
modifications: N-terminal methionine
- neutrophil cytotoxicity / neutrophil mediated killing of MDA-MB-231 cells (MDA-MB-231 cells): does not induce neutrophil mediated cell killing
- viability of 4T1 cells co-cultured with neutrophils purified from chemokine treated mice (4T1 cells): did not induce a reduction in cell viability
